# Reference: patent publication US7572594B2, “Screening assays for agonists or antagonists or receptor activator of NF-κB” (Immunex Corporation, priority 2000, dated 2009)
# B1: RANK (SEQ ID NO:2) and RANK-L (SEQ ID NO:6): co-transfection of expression vectors encoding full-length human RANK and human full-length RANK-L (protein, listed as Homo sapiens)
# chain 1: MAPRARRRRPLFALLLLCALLARLQVALQIAPPCTSEKHYEHLGRCCNKCEPGKYMSSKCTTTSDSVCLPCGPDEYLDSWNEEDKCLLHKVCDTGKALVAVVAGNSTTPRRCACTAGYHWSQDCECCRRNTECAPGLGAQHPLQLNKDTVCKPCLAGYFSDAFSSTDKCRPWTNCTFLGKRVEHHGTEKSDAVCSSSLPARKPPNEPHVYLPGLIILLLFASVALVAAIIFGVCYRKKGKALTANLWHWINEACGRLSGDKESSGDSCVSTHTANFGQQGACEGVLLLTLEEKTFPEDMCYPDQGGVCQGTCVGGGPYAQGEDARMLSLVSKTEIEEDSFRQMPTEDEYMDRPSQPTDQLLFLTEPGSKSTPPFSEPLEVGENDSLSQCFTGTQSTVGSESCNCTEPLCRTDWTPMSSENYLQKEVDSGHCPHWAASPSPNWADVCTGCRNPPGEDCEPLVGSPKRGPLPQCAYGMGLPPEEEASRTEARDQPEDGADGRLPSSARAGAGSGSSPGGQSPASGNVTGNSNSTFISSGQVMNFKGDIIVVYVSQTSQEGAAAAAEPMGRPVQEETLARRDSFAGNGPRFPDPCGGPEGLREPEKASRPVQEQGGAKA
# chain 2: MRRASRDYTKYLRGSEEMGGGPGAPHEGPLHAPPPPAPHQPPAASRSMFVALLGLGLGQVVCSVALFFYFRAQMDPNRISEDGTHCIYRILRLHENADFQDTTLESQDTKLIPDSCRRIKQAFQGAVQKELQHIVGSQHIRAEKAMVDGSWLDLAKRSKLEAQPFAHLTINATDIPSGSHKVSLSSWYHDRGWAKISNMTFSNGKLIVNQDGFYYLYANICFRHHETSGDLATEYLQLMVYVTKTSIKIPSSHTLMKGGSTKYWSGNSEFHFYSINVGGFFKLRSGEEISIEVSNPSLLDPDQDATYFGAFKVRDID
# B2: RANK Δ340-421: human RANK (SEQ ID NO:2) with the TRAF6 binding site (amino acids 340-421) deleted (protein, listed as Homo sapiens)
# chain: MAPRARRRRPLFALLLLCALLARLQVALQIAPPCTSEKHYEHLGRCCNKCEPGKYMSSKCTTTSDSVCLPCGPDEYLDSWNEEDKCLLHKVCDTGKALVAVVAGNSTTPRRCACTAGYHWSQDCECCRRNTECAPGLGAQHPLQLNKDTVCKPCLAGYFSDAFSSTDKCRPWTNCTFLGKRVEHHGTEKSDAVCSSSLPARKPPNEPHVYLPGLIILLLFASVALVAAIIFGVCYRKKGKALTANLWHWINEACGRLSGDKESSGDSCVSTHTANFGQQGACEGVLLLTLEEKTFPEDMCYPDQGGVCQGTCVGGGPYAQGEDARMLSLVSKTEIEEDSLQKEVDSGHCPHWAASPSPNWADVCTGCRNPPGEDCEPLVGSPKRGPLPQCAYGMGLPPEEEASRTEARDQPEDGADGRLPSSARAGAGSGSSPGGQSPASGNVTGNSNSTFISSGQVMNFKGDIIVVYVSQTSQEGAAAAAEPMGRPVQEETLARRDSFAGNGPRFPDPCGGPEGLREPEKASRPVQEQGGAKA
# Columns and labels:
# [1] = system: mouse TRAP promoter (SEQ ID NO:12); assay: mouse TRAP promoter/luciferase reporter in 293/EBNA cells; format: cell-based; details: 24 hours after transfection, 0.4 ng RANK vector, 20 ng RANK-L vector
# Text: (§1) This example describes the activation of the TRAP promoter. A 2.6 kb DNA fragment containing the human TRAP promoter was obtained by digesting the plasmid pBL2HT2.2 with the restriction endonuclease ApaI. The cloning of the human TRAP gene 5′ region and the construction of pBL2HT2.2 are fully described in Reddy et al. (Bone 16:587-593 (1995)). A DNA containing the mouse TRAP promoter (SEQ ID NO:12) and a DNA containing the murine MMP-9 promoter (SEQ ID NO:11) also were used for these experiments. DNAs containing the promoters were fused to the luciferase reporter gene. These promoter/reporter constructs were transfected into human 293/EBNA cells along with various combinations of expression vectors that encoded full-length human RANK (SEQ ID NO:2) and human full-length RANK-L proteins (SEQ ID NO:6).
# For the mouse TRAP promoter (SEQ ID NO:12), 2×10^5 293/EBNA cells were transfected using DEAE/dextran with 40 ng of a plasmid encoding approximately 2 kb of the mouse TRAP promoter (SEQ ID NO:12) fused to a luciferase reporter, 20 ng of an expression vector encoding RANK-L (SEQ ID NO:6), and 0.4 ng of an expression vector encoding RANK (SEQ ID NO:2). Twenty four hours after transfection, luciferase activity in cell lysates was measured according to manufacturer's instructions (Promega) using a EG&G/Berthold luminometer. […]
# [2] = system: human TRAP promoter; assay: human TRAP promoter/luciferase reporter in 293/EBNA cells; format: cell-based; details: 40 ng reporter
# Text: as §1
# For the human TRAP promoter, the 1.9 kb […] fragment containing the promoter activity isolated from the region upstream of the human TRAP gene (Reddy et al., 1995) was fused to a luciferase reporter and transfected (40 ng) into 293/EBNA cells. The combination of human RANK (SEQ ID NO:2) and human RANK-L (SEQ ID NO:6) increased reporter expression approximately 1.5 fold.
# [3] = system: c-src tyrosine kinase; assay: c-src immune complex kinase assay in RANK −/− osteoclast precursors infected with RANK retrovirus; format: cell-based, mouse; details: cells differentiated after retroviral infection; background = uninfected RANK −/− cells
# Procedure: Experiments were conducted in which DNA encoding wild-type or human RANK/TRAF6 binding mutant (RANK Δ340-421) was introduced into hematopoietic cells isolated from RANK −/− mice. Full-length and mutant human RANK DNAs were subcloned into the pBMNZ retroviral vector as previously described (Kinsella and Nolan, 1996, Human Gene Therapy 7:1405-1413). Infectious RANK-containing retrovirus was produced in 293-E Phoenix packaging cells as described (Kinsella and Nolan, 1996). Supernatants from these cells were used as a source of infectious virus particles.
# The generation of the RANK −/− mice used in these assays has been described previously (Dougall et al., 1999). Spleen cells were isolated from 3-6 week old RANK−/− mice and enriched for osteoclast precursors by depleting the initial cell population of various types of cells other than osteoclast precursors. For this “depletion” step, the cells were incubated with biotinylated antibodies against CD3 (specific for T cells), Ter-119 (specific for erythrocytes), and GR-1 (specific for granulocytes). After the antibodies had bound to their respective target cells, streptavidin-conjugated magnetic beads were added to the culture, and the mixture of cells was passed over magnetic columns (MACS depletion columns; MILLTENNYI). […]
# To induce c-src and F-actin rings, recombinant mRANK-L/leucine zipper protein was added to the cultures at a concentration of 1 μg/ml for various times after which the cells were lysed in a buffer containing 50 mM HEPES (pH 7.2), 10% glycerol, 250 mM NaCl and 1% Triton X-100. […] C-src activity in the immune complex was monitored using a commercially available assay kit (Upstate Biotechnology, Lake Placid, N.Y.). […] The phosphorylated substrate peptide was then separated from the residual labeled ATP using phosphocellulose paper and labeled peptide was quantified using a scintillation counter. […]
# [4] = system: primary hematopoietic cells from the RANK −/− mice; assay: F-actin ring formation, phalloidin staining; format: cell-based, mouse; details: 5 days in 40 ng/ml CSF-1 and 200 ng/ml mRANK-L
# Text: To detect F-actin rings, cells are fixed, such as by exposure to 3% paraformaldehyde, and visualized by staining cells with a fluorescent probe that binds specifically with actin. A suitable fluorescent tag is phalloidin, which can be obtained from Molecular Probes, Eugene, Oreg. The fluorescent signal is detected, for example, using a standard fluorescent microscope, and the number of cells having F-actin rings is visually quantified. An F-actin ring is identified as a continuous ring of F-actin at the periphery of a cell, and these distinct structures are visible through a microscope.
# A procedure to detect F-actin rings was carried out as follows. Primary hematopoietic cells from the RANK −/− mice were infected with retroviral constructs encoding either the full-length human RANK cDNA or the RANK/TRAF6 binding mutant (RANK Δ340-421). Cells were cultured on LabTek Chamber slides with #1 borosilicate coverglasses (Nalge/Nunc). After incubation for 5 days in MEM containing 10% fetal bovine serum containing 40 ng/ml CSF-1 and 200 ng/ml mRANK-L. The media was aspirated, washed twice in PBS and then fixed in a solution of 3% paraformaldehyde for 10 minutes, followed by quenching in 50 mM NH4Cl. […] The fluorescent signal was detected using a standard fluorescent microscope, and F-actin rings were identified as continuous rings of F-actin at the periphery of individual cells.
# [5] = system: spleen cells from RANK −/− mice; assay: CaPO4 resorption (pit formation) assay; format: cell-based, mouse; details: 5 days in 40 ng/ml CSF-1 and 200 ng/ml mRANK-L on CaPO4 film
# Text: The resorption of CaPO4, upon which this assay is based, is considered to be a measure of osteoclast activity. Spleen cells were isolated from 3-6 week old RANK −/− mice and treated as described in Example 9 to remove cells expressing the CD3, Ter-119, and GR-1 antigens. Cells not expressing any of these antigens were harvested and infected as described in Example 9 with retroviral vector particles containing full-length or TRAF6 binding site deletion mutants of RANK.
# Following infection, the spleen cells were harvested and plated in MEM containing 10% fetal bovine serum containing 40 ng/ml CSF-1 and 200 ng/ml mRANK-L onto 16 well quartz slides coated with a thin film of CaPO4 (Osteologic, BD Biosystems). After 5 days in culture, the slides were washed, the cells removed by washing with bleach, and the slides washed again with buffer. […] The number of pits in the CaPO4 film is a measure of the extent to which the RANK-L induced the cells grown on that slide to differentiate into osteoclasts.
# If desired, the CaPO4 film can be stained using a 0.5% solution of alizarin red for 4 to 5 minutes followed by washing in water. After staining, the resorptive lacunae are visualized by phase contrast microscopy as a clear area on a red background.
Molecule,increase of reporter expression (luciferase) [1],increase of reporter expression (luciferase) [2],c-src activity [3],cells with F-actin rings [4],CaPO4 resorption [5]
B1,approximately 4 fold,approximately 1.5 fold,–,–,–
B2,–,–,not discernibly different from background levels,no F-actin rings were discerned,insignificant levels of CaPO4 resorption
